Source: publication PMC2821528 (Molecular Microbiology, 2009)
Like-named read-outs stand apart in the source and are kept apart here. Each block holds one molecule with its values, some of them ahead of it.

Tests used:
TolB (Escherichia coli) [1] = target: TolB (Escherichia coli) (UniProt P0A855); details: cited from earlier work
TolB (Escherichia coli) [2] = target: TolB (Escherichia coli) (UniProt P0A855); details: cited from earlier work; remark: listed apart in the source
TolB (E. coli) [3] = target: TolB (E. coli) (UniProt P0A855); experiment: SPR
TolB (E. coli) [4] = target: TolB (E. coli) (UniProt P0A855); experiment: SPR; remark: listed apart in the source
Pal (Escherichia coli) = Pal (Escherichia coli) (UniProt P0A912); details: cited from earlier work
TolB = TolB (E. coli, UniProt P0A855 22-430); experiment: SEC

Molecule: Colicin E9 (from UniProt P09883)
Kd (TolB (Escherichia coli) [1]): 90 nM | Kd (TolB (Escherichia coli) [2]): 1000 nM

Molecule: TA_(1–107), 107-residue peptide of the translocation domain of colicin A (domain or fragment)
Kd (TolB (E. coli) [3]): 1600 nM | Kd (TolB (E. coli) [4]): 24300 nM

Molecule: TolB (from UniProt P0A855)
Kd (Pal (Escherichia coli)): 90 nM

binding result (TolB): binds
B1: Pal, soluble periplasmic domain (residues 65–173) (domain or fragment, E. coli, UniProt P0A912 65-173, looked up)
chain: LQQNNIVYFDLDKYDIRSDFAQMLDAHANFLRSNPSYKVTVEGHADERGTPEYNISLGERRANAVKMYLQGKGVSADQISIVSYGKEKPAVLGHDEAAYSKNRRAVLVY
